Data taken from paper PMC10141540.

Experiments:
[1] = target: T1, HU-B (Escherichia coli, UniProt P0ACF4 1-90); experiment: condensate co-localization
T1 sequence: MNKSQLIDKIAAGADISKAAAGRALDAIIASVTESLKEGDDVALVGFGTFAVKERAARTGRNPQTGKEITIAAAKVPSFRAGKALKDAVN

[2] = target: T1, HU-B; experiment: EMSA
[3] = target: HU-A (Escherichia coli, UniProt P0ACF0 1-90); experiment: EMSA
HU-A, sequence (P0ACF0 whole entry): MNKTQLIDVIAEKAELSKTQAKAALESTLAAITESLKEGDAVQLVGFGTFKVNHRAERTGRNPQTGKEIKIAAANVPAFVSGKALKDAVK

B1: 20 bp dsDNA (dsDNA)
DNA 1: GTTCAATTGTTGTTAACTTG
DNA 2: CAAGTTAACAACAATTGAAC
- binding result [1]: binds

B2: 4WJ DNA (structured_DNA)
DNA 1: CCCTATAACCCCTGCATTGAATTCCAGTCTGATAA
DNA 2: GTAGTCGTGATAGGTGCAGGGGTTATAGGG
DNA 3: AACAGTAGCTCTTATTCGAGCTCGCGCCCTATCACGACTA
DNA 4: TTTATCAGACTGGAATTCAAGCGCGAGCTCGAATAAGAGCTACTGT
- binding result [2]: binds
- binding result [3]: binds
